These results are taken from paper PMC7600425, “Modulation of Guanylate Cyclase Activating Protein 1 (GCAP1) Dimeric Assembly by Ca^2+ or Mg^2+: Hints to Understand Protein Activity” (Biomolecules, 2020).

As a reminder, the Kd is the concentration at which binding is half-saturated. For orientation: stoichiometry N means the number of molecules, sites or subunits per partner or assembly.

The target in one data set is RetGC (Homo sapiens) (UniProt Q02846). Conditions: cited from earlier work.
Data set [1] concerns the molecule itself. In words: MST; NT-647-NHS-labelled hGCAP1 with dilutions of unlabelled hGCAP1; 20 mM Tris-HCl, 150 mM KCl, 5 mM MgCl2, 2.5 mM EGTA, pH 7.5, 1 mM DTT, 0.05% Tween20; Mg2+-bound; dimer to monomers.
Data set [2] deals with the molecule itself. The data set can be described thus: MST; NT-647-NHS-labelled hGCAP1 with 16 dilutions of unlabelled hGCAP1 (46.6 µM to 11.4 nM); 20 mM Tris-HCl, 100 mM NaCl, pH 7.5, 1 mM DTT, 5 mM CaCl2, 0.05% Tween20; 24 °C; Ca2+-bound; dimer to monomers.
Data set [3] concerns the molecule itself. The data set can be described thus: SEC; analytical SEC, Superdex 75 Increase 10/300 GL, dilution series; 20 mM Tris-HCl pH 8.0, 100 mM NaCl, 1 mM DTT, 5 mM MgCl2, 2.5 mM EGTA; Mg2+-bound; Kd from a 3-parameter fit of elution volume against concentration; dimer to monomers. On the technique in general: SEC sorts molecules by how far they enter the pores of the column.

Data set [4] deals with the molecule itself. In words: SEC; analytical SEC, Superdex 75 Increase 10/300 GL, six dilutions (87-2 µM injected); 20 mM Tris-HCl pH 8.0, 100 mM NaCl, 1 mM DTT, 5 mM CaCl2; Ca2+-bound; Kd from a 3-parameter fit of elution volume against concentration; dimer to monomers.

RetGC (Homo sapiens), sequence (Q02846 52-1103): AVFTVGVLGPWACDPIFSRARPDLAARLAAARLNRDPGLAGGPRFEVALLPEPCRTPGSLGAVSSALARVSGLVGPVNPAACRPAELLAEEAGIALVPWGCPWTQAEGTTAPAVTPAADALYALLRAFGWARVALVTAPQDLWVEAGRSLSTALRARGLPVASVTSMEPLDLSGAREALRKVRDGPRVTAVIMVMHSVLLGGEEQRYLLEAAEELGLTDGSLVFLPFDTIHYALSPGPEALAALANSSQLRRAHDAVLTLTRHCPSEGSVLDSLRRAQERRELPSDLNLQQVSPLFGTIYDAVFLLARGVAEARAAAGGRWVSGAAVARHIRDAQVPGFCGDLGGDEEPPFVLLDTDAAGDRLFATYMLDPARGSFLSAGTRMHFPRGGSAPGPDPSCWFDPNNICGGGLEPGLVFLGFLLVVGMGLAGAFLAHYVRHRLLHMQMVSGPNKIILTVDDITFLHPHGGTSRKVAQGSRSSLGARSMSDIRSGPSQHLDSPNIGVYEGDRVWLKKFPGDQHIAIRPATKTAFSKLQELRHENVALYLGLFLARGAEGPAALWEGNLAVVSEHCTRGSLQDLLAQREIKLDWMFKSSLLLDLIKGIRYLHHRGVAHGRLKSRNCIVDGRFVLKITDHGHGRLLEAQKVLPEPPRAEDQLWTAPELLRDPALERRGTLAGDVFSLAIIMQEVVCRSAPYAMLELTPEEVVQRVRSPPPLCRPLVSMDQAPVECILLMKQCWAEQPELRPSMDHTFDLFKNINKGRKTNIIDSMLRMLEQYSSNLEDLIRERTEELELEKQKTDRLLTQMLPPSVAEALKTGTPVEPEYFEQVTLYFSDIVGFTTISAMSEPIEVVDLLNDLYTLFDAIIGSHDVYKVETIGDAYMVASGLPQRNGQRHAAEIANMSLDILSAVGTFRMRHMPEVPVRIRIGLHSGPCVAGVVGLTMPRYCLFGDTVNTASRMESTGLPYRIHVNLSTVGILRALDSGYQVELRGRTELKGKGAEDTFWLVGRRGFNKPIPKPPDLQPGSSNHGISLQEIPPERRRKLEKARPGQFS

On to GCAP1 (from UniProt P43080), for which, in the data set with RetGC (Homo sapiens), the Kd is 3.2 µM.

B1: human guanylyl cyclase-activating protein 1 (hGCAP1), N-terminally myristoylated, E6S (natural protein, UniProt P43080 1-201, looked up)
chain: MGNVMSGKSVEELSSTECHQWYKKFMTECPSGQLTLYEFRQFFGLKNLSPSASQYVEQMFETFDFNKDGYIDFMEYVAALSLVLKGKVEQKLRWYFKLYDVDGNGCIDRDELLTIIQAIRAINPCSDTTMTAEEFTDTVFSKIDVNGDGELSLEEFIEGVQKDQMLLDTLTRSLDLTRIVRRLQNGEQDEEGADEAAEAAG
modifications: N-terminal myristoylation (myristoylated Gly at the N-term); in the MST experiments the labelled copy carries the dye NT-647-NHS on primary amines (lysine residues), about 1:1
notes: printed as 201 amino acids, 22.9 kDa; E6S needed for myristoylation in E. coli; In MST a dye-labelled copy was titrated with unlabelled protein; also called human GCAP1; recombinant human (h) GCAP1; source: E. coli BL21-CodonPlus RP, co-expressed with yeast N-myristoyltransferase, purified (ion exchange, SEC)
Turning to B1, the Kd came to 77.2 ± 8.9 µM in data set [1], 9.4 ± 1.3 µM in data set [2], 45 ± 15 µM in data set [3] and 8.8 ± 0.7 µM in data set [4]. The “stoichiometry N” value in data set [4] was determined as 2.
